Measured values as given in the supplement of paper PMC7877785.
± gives the uncertainty stated by the source.

Test: self-splicing fitness, log relative to wild type (ln ratio); higher = more splicing; Tetrahymena group I intron in knt gene, E. coli kanamycin selection, DiMSum; sequences stand for … in CUCUCU…GGAGGGAAAAGUUAUCAGGCAUGCACCUGGUAGCUAGUCUUUAAACCAAUAGAUUGCAUCGGUUUAAAAGGCAAGACCGUCAAAUUGCGGGAAAGGGGUCAACAGCCGUUCAGUACCAAGUCUCAGGGGAAACUUUGAGAUGGCCUUGCAAAGGGUAUGGUAAUAAGCUGACGGACAUGGUCCUAACCACGCAGCCAAGUCCUAAGUCAACAGAUCUUCUGUUGAUAUGGAUGCAGUUCACAGACUAAAUGUCGGUCGGGGAAGAUGUAUUCUUCUCAUAAGAUAUAGUCGGACCUCUCCUUAAUGGGAGCUAGCGGAUGAAGUGAUGCAACACUGGAGCCGCUGGGAACUAAUUUGUAUGCGAAAGUAUAUUGAUUAGUUUUGGAGUACUCGUGGUCG
How it was run: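 Library with all eight P1ex-region intron nucleotides randomised, intron inside the knt kanamycin-resistance gene on pET-22b(+), in E. coli BL21(DE3). Cells grew overnight at 37°C or 30°C on LB agar with or without 25 μg/mL kanamycin (plus 100 μg/mL carbenicillin, 50 μM IPTG, 0.2% rhamnose), in six replicate transformations. Pooled colonies were amplicon-sequenced on Illumina HiSeq 2500. DiMSum fitness is the error-weighted combination of wild-type-normalised replicate fold changes, kanamycin versus none.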

## AGACAGCAAUAUUACGCACA
30 °C
  self-splicing fitness (ln): -0.582 ± 0.079
37 °C
  self-splicing fitness (ln): -0.0964 ± 0.099

## AGACAGCAAUAUUACGCACG
30 °C
  self-splicing fitness (ln): -2.11 ± 0.12
37 °C
  self-splicing fitness (ln): -0.922 ± 0.13

## AGACAGCAAUAUUACGCCCC
30 °C
  self-splicing fitness (ln): -0.804 ± 0.24
37 °C
  self-splicing fitness (ln): 0.31 ± 0.26

## AGACAGCAAUAUUACGCCUA
30 °C
  self-splicing fitness (ln): -1.46 ± 0.16
37 °C
  self-splicing fitness (ln): -0.402 ± 0.17

## AGACAGCAAUAUUACGCCUU
30 °C
  self-splicing fitness (ln): -2.75 ± 0.097
37 °C
  self-splicing fitness (ln): -0.727 ± 0.086

## AGACAGCAAUAUUACGCGAC
30 °C
  self-splicing fitness (ln): -3.41 ± 0.44
37 °C
  self-splicing fitness (ln): -1.99 ± 0.21

## AGACAGCAAUAUUACGCGUC
30 °C
  self-splicing fitness (ln): -3.19 ± 0.29
37 °C
  self-splicing fitness (ln): -2.08 ± 0.24

## AGACAGCAAUAUUACGCUCA
30 °C
  self-splicing fitness (ln): -0.572 ± 0.096
37 °C
  self-splicing fitness (ln): 0.589 ± 0.12

## AGACAGCAAUAUUACGCUGU
30 °C
  self-splicing fitness (ln): -4.06 ± 0.29
37 °C
  self-splicing fitness (ln): -2.54 ± 0.21

## AGACAGCAAUAUUACGGAUG
30 °C
  self-splicing fitness (ln): -2.81 ± 0.11
37 °C
  self-splicing fitness (ln): -2.38 ± 0.17

## AGACAGCAAUAUUACGGGAC
30 °C
  self-splicing fitness (ln): -2.87 ± 0.18
37 °C
  self-splicing fitness (ln): -2.54 ± 0.23

## AGACAGCAAUAUUACGGGGA
30 °C
  self-splicing fitness (ln): -3.11 ± 0.17
37 °C
  self-splicing fitness (ln): -1.82 ± 0.12

## AGACAGCAAUAUUACGGGUA
30 °C
  self-splicing fitness (ln): -2.49 ± 0.1
37 °C
  self-splicing fitness (ln): -2.1 ± 0.095

## AGACAGCAAUAUUACGGUCA
30 °C
  self-splicing fitness (ln): -0.457 ± 0.063
37 °C
  self-splicing fitness (ln): -0.0714 ± 0.074

## AGACAGCAAUAUUACGUACC
30 °C
  self-splicing fitness (ln): -0.256 ± 0.11
37 °C
  self-splicing fitness (ln): -0.253 ± 0.14

## AGACAGCAAUAUUACGUCCA
30 °C
  self-splicing fitness (ln): -0.173 ± 0.092
37 °C
  self-splicing fitness (ln): -0.591 ± 0.14

## AGACAGCAAUAUUACGUCCU
30 °C
  self-splicing fitness (ln): -0.567 ± 0.052
37 °C
  self-splicing fitness (ln): -0.257 ± 0.066

## AGACAGCAAUAUUACGUCGU
30 °C
  self-splicing fitness (ln): -2.21 ± 0.091
37 °C
  self-splicing fitness (ln): -1.85 ± 0.12

## AGACAGCAAUAUUACGUGAC
30 °C
  self-splicing fitness (ln): -2.89 ± 0.15
37 °C
  self-splicing fitness (ln): -1.42 ± 0.13

## AGAGAGCAAUAUUACGAAUC
30 °C
  self-splicing fitness (ln): -3.68 ± 0.47
37 °C
  self-splicing fitness (ln): -2.06 ± 0.37

## AGAGAGCAAUAUUACGACCU
30 °C
  self-splicing fitness (ln): -1.59 ± 0.18
37 °C
  self-splicing fitness (ln): -0.651 ± 0.26

## AGAGAGCAAUAUUACGACUC
30 °C
  self-splicing fitness (ln): -1.4 ± 0.12
37 °C
  self-splicing fitness (ln): -0.408 ± 0.15

## AGAGAGCAAUAUUACGACUG
30 °C
  self-splicing fitness (ln): -2.3 ± 0.2

## AGAGAGCAAUAUUACGAUCC
30 °C
  self-splicing fitness (ln): -2.71 ± 0.24
37 °C
  self-splicing fitness (ln): -1.5 ± 0.32

## AGAGAGCAAUAUUACGAUGC
30 °C
  self-splicing fitness (ln): -3.3 ± 0.48

## AGAGAGCAAUAUUACGAUUU
30 °C
  self-splicing fitness (ln): -1.52 ± 0.11
37 °C
  self-splicing fitness (ln): -0.748 ± 0.11

## AGAGAGCAAUAUUACGCAGA
30 °C
  self-splicing fitness (ln): -1.67 ± 0.22

## AGAGAGCAAUAUUACGCGAC
30 °C
  self-splicing fitness (ln): -2.11 ± 0.34
37 °C
  self-splicing fitness (ln): -1.87 ± 0.39

## AGAGAGCAAUAUUACGCGGU
30 °C
  self-splicing fitness (ln): -3.79 ± 0.43
37 °C
  self-splicing fitness (ln): -2.17 ± 0.46

## AGAGAGCAAUAUUACGCUUA
30 °C
  self-splicing fitness (ln): -2.39 ± 0.25
37 °C
  self-splicing fitness (ln): -1.32 ± 0.23

## AGAGAGCAAUAUUACGGAUA
30 °C
  self-splicing fitness (ln): -2.48 ± 0.21
37 °C
  self-splicing fitness (ln): -1.24 ± 0.21

## AGAGAGCAAUAUUACGGAUG
37 °C
  self-splicing fitness (ln): -1.4 ± 0.36

## AGAGAGCAAUAUUACGGCAU
30 °C
  self-splicing fitness (ln): -2.39 ± 0.18
37 °C
  self-splicing fitness (ln): -1.36 ± 0.18

## AGAGAGCAAUAUUACGGCGC
37 °C
  self-splicing fitness (ln): -2.13 ± 0.35

## AGAGAGCAAUAUUACGGGGG
30 °C
  self-splicing fitness (ln): -2.78 ± 0.34
37 °C
  self-splicing fitness (ln): -1.7 ± 0.36

## AGAGAGCAAUAUUACGGUGG
30 °C
  self-splicing fitness (ln): -2.76 ± 0.23
37 °C
  self-splicing fitness (ln): -3.44 ± 0.37

## AGAGAGCAAUAUUACGUAUA
37 °C
  self-splicing fitness (ln): -1.02 ± 0.32

## AGAGAGCAAUAUUACGUCGG
30 °C
  self-splicing fitness (ln): -2.92 ± 0.25
37 °C
  self-splicing fitness (ln): -2.2 ± 0.26

## AGAGAGCAAUAUUACGUCUG
30 °C
  self-splicing fitness (ln): -4.03 ± 0.33
37 °C
  self-splicing fitness (ln): -2.38 ± 0.31

## AGAGAGCAAUAUUACGUGAG
30 °C
  self-splicing fitness (ln): -3.12 ± 0.17
37 °C
  self-splicing fitness (ln): -2.9 ± 0.26

## AGAGAGCAAUAUUACGUGGU
30 °C
  self-splicing fitness (ln): -3.49 ± 0.29
37 °C
  self-splicing fitness (ln): -3.6 ± 0.37

## AGAGAGCAAUAUUACGUUCA
30 °C
  self-splicing fitness (ln): -2.39 ± 0.22
37 °C
  self-splicing fitness (ln): -1.81 ± 0.22

## AGAUAGCAAUAUUACGAAAU
30 °C
  self-splicing fitness (ln): -2.87 ± 0.13
37 °C
  self-splicing fitness (ln): -0.838 ± 0.12

## AGAUAGCAAUAUUACGACCA
30 °C
  self-splicing fitness (ln): -0.39 ± 0.16
37 °C
  self-splicing fitness (ln): 1.11 ± 0.2

## AGAUAGCAAUAUUACGACUG
30 °C
  self-splicing fitness (ln): -1.38 ± 0.2
37 °C
  self-splicing fitness (ln): 0.221 ± 0.29

## AGAUAGCAAUAUUACGAGUA
30 °C
  self-splicing fitness (ln): -1.76 ± 0.3
37 °C
  self-splicing fitness (ln): -1.33 ± 0.2

## AGAUAGCAAUAUUACGAGUC
30 °C
  self-splicing fitness (ln): -2.64 ± 0.18
37 °C
  self-splicing fitness (ln): -2.14 ± 0.21

## AGAUAGCAAUAUUACGAUAU
30 °C
  self-splicing fitness (ln): -1.02 ± 0.11
37 °C
  self-splicing fitness (ln): -0.119 ± 0.14

## AGAUAGCAAUAUUACGAUGC
30 °C
  self-splicing fitness (ln): -2.02 ± 0.15
37 °C
  self-splicing fitness (ln): -0.736 ± 0.16

## AGAUAGCAAUAUUACGCAAC
30 °C
  self-splicing fitness (ln): -2.05 ± 0.34
37 °C
  self-splicing fitness (ln): -1.39 ± 0.24
